Common to all, as to experiment: fluorescent microbead binding (VideoScan)
The target in one series is Interferon gamma (IFNγ) (UniProt P01579 24-161). The conditions noted are these: protein: commercial; chain copies: 2.
The next series deals with Thrombin (UniProt P00734;P00734 328-363;364-622).
A further series deals with PfLDH (UniProt Q76NM3 1-316). The settings on record: protein: recombinant; chain copies: 4.

Chain of Interferon gamma (IFNγ) (P01579 24-161): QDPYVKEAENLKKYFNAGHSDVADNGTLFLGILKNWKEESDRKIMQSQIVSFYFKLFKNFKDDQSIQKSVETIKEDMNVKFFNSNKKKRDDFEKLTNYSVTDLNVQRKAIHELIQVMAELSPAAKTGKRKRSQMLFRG

On to CTGGGCGGTAGAACCATAGTGACCCAGCCGTCTAC (structured_DNA) [PfLDH-apta], for which the figures for the binding signal in the series with Interferon gamma (IFNγ), with Thrombin and in the series with PfLDH were ~6 fold signal increase, ~8 fold signal increase and ~2 fold signal vs no divalent cations, respectively.

These data come from PMC8863788, “A multiparametric fluorescence assay for screening aptamer–protein interactions based on microbeads”.
